Test [1] has as its target Vibrio harveyi chitoporin (VhChiP), recombinant, mature trimer (Vibrio harveyi type strain 650). Kind of test: SDS-PAGE of samples unheated or heated at up to 60°C; purified VhChiP (peak P2 of the ion exchange) unheated or heat-treated for 10 min, run on a 10% polyacrylamide gel; trimer to monomers.
Test [2] has the same target. The test is described as follows: single-channel current recording in a planar lipid bilayer (BLM); purified VhChiP added to the cis side of a DPhPC bilayer, 1 M KCl, 20 mM HEPES pH 7.5; closure induced by higher voltage (+200 mV).

Turning to “Vibrio harveyi chitoporin (VhChiP), recombinant, mature trimer (natural protein)”, the stoichiometry N in test [1] and in test [2] was 3 in each case.

These data come from paper PMC3558487.
